The Tm is the temperature at the midpoint of the melting transition.

The record followed here is FireProtDB (doi:10.1110/ps.03220403).

For this data set the following is noted: pH 8, Thermal, CD, Bis-Tris propane ammonium acetate 0.05 M 0.05 M, reversible: No, whole UniProt chain shown.

B1: wild type, O00095 (protein)
chain: MKFLQVLPALIPAALAQTSCDQWATFTGNGYTVSNNLWGASAGSGFGCVTAVSLSGGASWHADWQWSGGQNNVKSYQNSQIAIPQKRTVNSISSMPTTASWSYSGSNIRANVAYDLFTAANPNHVTYSGDYELMIWLGKYGDIGPIGSSQGTVNVGGQSWTLYYGYNGAMQVYSFVAQTNTTNYSGDVKNFFNYLRDNKGYNAAGQYVLSYQFGTEPFTGSGTLNVASWTASIN
In the case of B1, the Tm (Hypocrea jecorina) stood at 54.4 °C.

B2: wild type, Q8NJY3 (protein)
chain: MLKSALLLGAAAVSVQSASIPTIPANLEPRQIRSLCELYGYWSGNGYELLNNLWGKDTATSGWQCTYLDGTNNGGIQWSTAWEWQGAPDNVKSYPYVGKQIQRGRKISDINSMRTSVSWTYDRTDIRANVAYDVFTARDPDHPNWGGDYELMIWLARYGGIYPIGTFHSQVNLAGRTWDLWTGYNGNMRVYSFLPPSGDIRDFSCDIKDFFNYLERNHGYPAREQNLIVYQVGTECFTGGPARFTCRDFRADLW
Consider B2, for which the melting temperature (Tm) (Trichocladium griseum) was 68.7 °C.
